From IntAct's records for PubMed 25040622

B1: Proline-serine-threonine phosphatase-interacting protein 1 (Homo sapiens), O43586 (parent)
chain: MMPQLQFKDAFWCRDFTAHTGYEVLLQRLLDGRKMCKDMEELLRQRAQAEERYGKELVQIARKAGGQTEINSLRASFDSLKQQMENVGSSHIQLALTLREELRSLEEFRERQKEQRKKYEAVMDRVQKSKLSLYKKAMESKKTYEQKCRDADDAEQAFERISANGHQKQVEKSQNKARQCKDSATEAERVYRQSIAQLEKVRAEWEQEHRTTCEAFQLQEFDRLTILRNALWVHSNQLSMQCVKDDELYEEVRLTLEGCSIDADIDSFIQAKSTGTEPPAPVPYQNYYDREVTPLTSSPGIQPSCGMIKRFSGLLHGSPKTTSLAASAASTETLTPTPERNEGVYTAIAVQEIQGNPASPAQEYRALYDYTAQNPDELDLSAGDILEVILEGEDGWWTVERNGQRGFVPGSYLEKL
partner: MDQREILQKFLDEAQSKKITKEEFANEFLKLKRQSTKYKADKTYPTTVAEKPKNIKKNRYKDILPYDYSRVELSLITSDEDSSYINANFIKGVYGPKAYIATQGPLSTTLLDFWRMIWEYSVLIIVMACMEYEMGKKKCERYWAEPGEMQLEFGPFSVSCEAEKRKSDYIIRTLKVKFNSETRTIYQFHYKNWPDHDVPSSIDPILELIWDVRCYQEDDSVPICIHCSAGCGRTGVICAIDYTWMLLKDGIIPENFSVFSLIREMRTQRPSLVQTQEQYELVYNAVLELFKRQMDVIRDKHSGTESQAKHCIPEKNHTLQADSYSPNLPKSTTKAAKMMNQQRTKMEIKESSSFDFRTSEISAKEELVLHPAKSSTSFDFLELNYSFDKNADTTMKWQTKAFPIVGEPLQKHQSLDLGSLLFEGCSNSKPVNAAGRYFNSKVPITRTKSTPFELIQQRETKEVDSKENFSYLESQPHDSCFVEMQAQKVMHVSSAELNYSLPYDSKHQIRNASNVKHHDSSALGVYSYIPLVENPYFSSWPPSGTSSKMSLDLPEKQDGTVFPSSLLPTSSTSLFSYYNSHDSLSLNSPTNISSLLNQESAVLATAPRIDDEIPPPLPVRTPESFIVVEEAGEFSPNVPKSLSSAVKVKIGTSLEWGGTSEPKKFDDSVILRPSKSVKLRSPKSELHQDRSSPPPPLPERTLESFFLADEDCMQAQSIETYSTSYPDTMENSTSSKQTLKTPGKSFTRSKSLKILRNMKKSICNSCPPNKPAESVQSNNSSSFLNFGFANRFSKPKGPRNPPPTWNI

Variants of: B1
Conditions: with ptn22_human PTPN22, Q9Y2R2

Row | effect of a mutation on the interaction | Variant
1 | disrupting interaction | E250Q

Variants of: B1
Conditions: with ptn22_human PTPN22, Q9Y2R2
Remark: another data set of the same source

Row | effect of a mutation on the interaction | Variant
2 | disrupting interaction | W232A
